Data as given in patent US20110294219A1.

B1: human foamy virus (HFV) Bet protein, P89873 1-482 (protein)
chain: MDSYEKEESVASTSGIQDLQTLSELVGPENAGEGELTIAEEPEENPRRPRRYTKREVKCVSYHAYKEIEDKHPQHIKLQDWIPTPEEMIAQKVQNQDLGTILSFDVTCLKSITSLGRNDPGDDPSIMSHVLPVVTPWPMSQDHYAPTLFGILDRYYQGYLKSPATYQTWKFTCQVDPSGKRFMETQFWVPPLGQVNIQFYKNYQILTCCQAVDPFANIFHGTDEEMFDIDSGPDVWCSPSLCFKVIYEGAMGQKQEQKTWLCRLGHGHRMGACDYRKVDLYAMRQGKENPYGDRGDAALQYAYQVKRGCKAGCLASPVLNYKALQFHRTIMADFTNPRIGEGHLAHGYQAAMEAYGPQRGSNEERVWWNVTRNQGKQGGEYYREGGEEPHYPNTPAPHRRTWDERHKVLKLSSFATPSDIQRWTTKALPYGWKVVTESGNDYTSRRKIRTLTEMTQDEIRKRWESGYCDPFIDSGSDSDGPF

What was measured:
Assay in all cases: cell-based or functional assay
[1] = target: C-terminal HA-tagged feline APOBEC3 (feline)
C-terminal HA-tagged feline APOBEC3 (feline), sequence (Q4VDN5 whole entry): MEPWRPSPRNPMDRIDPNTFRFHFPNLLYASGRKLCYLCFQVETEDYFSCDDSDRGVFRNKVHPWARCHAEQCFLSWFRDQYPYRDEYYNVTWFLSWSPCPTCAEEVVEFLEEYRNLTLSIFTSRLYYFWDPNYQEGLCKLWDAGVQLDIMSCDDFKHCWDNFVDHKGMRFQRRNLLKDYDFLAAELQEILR

feline APOBEC3 (feline) = target: feline APOBEC3 (feline)
[2] = target: different primate APOBEC3 proteins (e.g. from chimpanzee, African green monkey, human)

Molecule	G→A exchanges per 100 nucleotides in FFV genomes with fe3 coexpressed (G→A exchanges per 100 nucleotides) [1]	reduction of FFV titer (FeFAB reporter cells) on cotransfection of pfe3 (feline APOBEC3 (feline)) [fold]	Bet-mediated rescue of marker gene transduction in the presence of different APOBEC3 molecules [2] [fold]
feline foamy virus (FFV) Bet protein (from UniProt Q8NFT8)	0.05	< 10	–
FFV Bet truncated after amino acid 116 (mutant pFeFV-BBtr)	1.05	–	–
B1	–	–	< 100
